# ± gives the half width of the 95% confidence interval.
# Assay: folding stability dG unfold from chymotrypsin proteolysis; higher = more stable
# Outline: (§1)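 K50 was inferred by Bayesian fitting of sequencing counts obtained after protease digestion of designed mini-proteins. Unfolding free energy was derived by comparison with a sequence-predicted unfolded-state K50 and a shared folded-state K50, for each protease or both combined. The mini-proteins were under 80 residues, had no cysteine, were carried in a PA-tagged cDNA display construct, and were kept only if AlphaFold2 dimer inter-PAE exceeded 15.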
row,Sequence,folding stability dG unfold [kcal/mol]
1,SAGGSAGGSAGLLPIEELLKKNPEPVTFMVKDNDTLYRIEITPKDGKWTIEIEPLPGMKPSAGGSAGGSAGG [r11_549_TrROS],1.49 ± 0.077
2,SAGGMTPAVTETTIELPASDPEAAIAALRAAGWELLARERGPDGSVRMVFAAPTRRVTVDFVGPAAASAGGS [r16_170_JUSTAS],2.03 ± 0.039
3,SAGGSAGGSRIIFRIPPEFRENMPIEEIVEEFLPPGMPVEIEWERTPDPWYVTVDIEIPPGQLSAGGSAGGS [r12_716_TrROS],0.325 ± 0.33
4,SKPVLVKVKIVTKNKNGKKIEKELVIEMSEEDLEKLLEELLNDPNLKDVEKIEIEVVDAETGEVYTFTFPSA [r9_97_TrROS_Hall],3.15 ± 0.062
5,SAGGSAGGSAGGMELELTFATPEQAVEYAERFERLGYEVEVEYYPETGLVRVRVRLYPEESAGGSAGGSAGG [r7_623_TrMRF],3.6 ± 0.072
6,SAGMAEEAREAARLFASELAPRFGVEAEIPEVRVEFDPETGEVHVHLEVLFRLPEPRTVRRDFVLVLPLSAG [r5_381_TrMRF],1.92 ± 0.13
7,SAGVVVERTVTRTVPKDSATKEKIIEEIKASMPGMKVKEVEVLSETPLPDGSIVVTVKLTIERPPDVLESAG [r5_682_JUSTAS],2.88 ± 0.092
8,SAGGSAGGSAGGMIRIVNEETGEEIEISPEELEELLAKSDKPVRIEVDGKVIPLDAKDLSAGGSAGGSAGGS [r10_839_TrROS_Hall],-0.268 ± 0.054
9,SAGGSAGGSAKIFARAPPGQWYRITVKYKGGNGDKKEHTATIPPNNPPPDIEDVEIEPIPPGSAGGSAGGSA [r18_223_TrROS],3.15 ± 0.066
10,SAGGGMVITTPQTTSTTFSPPTAPAVPAPFTQSSSFTIGNTKVTVTTTQAAGSGTTTVTLTTILPPLASAGG [r13_998_JUSTAS],1.18 ± 0.089
11,SAGGSAGGSAGSEIAEAIKKALEEAGVKEVKIEKVGPEPNVFRITFENGETIEITLPEDLSAGGSAGGSAGG [r11_765_TrROS_Hall],2.19 ± 0.037

# Assay: folding stability dG unfold (combined trypsin and chymotrypsin); higher = more stable
# Outline: as §1
row,Sequence,folding stability dG unfold [kcal/mol]
1,SAGGSAGGSAGGDDDWRIMINIEIWPYPNYVRIRFPIMIIPPDGKLIGSVEVTFWIPANDSAGGSAGGSAGG [r7_812_TrROS],3.7 ± 0.38
2,SAGGSAGIKAVLNLGDKPVLVLIEPLPDGSFPVIAIFADDGSKVEKVIPASDIGELLSLDPDKLTFSAGGSA [r15_629_TrMRF],0.6 ± 0.18
3,SAGGPKVEIVDITVTEEEVNGKKKKTVTVKVKLENGETLTITMSEEELKKLGLSVEEIAKKLAKKLKSAGGS [r16_625_TrROS_Hall],2.09 ± 0.15
4,SAGGSAGGSAGMKIEYEHDPNRNWYTVKIDFPNGPPKIPIQVPHDDMPPNDLRDWAKELFSAGGSAGGSAGG [r11_557_TrROS],0.475 ± 0.28
5,SAGGIDLSKLPKNSIVVITKVKVYPTKVGEPDGEGEGYVEVELRVFRNIPPTGKILSSPLPVKFKIASAGGS [r8_486_TrMRF],1.17 ± 0.12
6,SAGGSMSIPLKTEEDVKKAVEYIKQKLLEEGAPEGLKIDKVEVTKLPDGTYKITITFPNKTFELVGSAGGSA [r2_120_JUSTAS],2.64 ± 0.079
7,SAGGSAPPDTPLATIEFTLTPPDGSTTPTTITVPPSVVEEAAAAQKAAFEAAGWATTVTVATTTPLSAGGSA [r2_274_JUSTAS],0.526 ± 0.034
8,SAGGSAGGSAGGSYIIVQFPADEIKEALPPGFEIKSIERSPKNGWVMVAIRYPKDGKPISAGGSAGGSAGGS [r4_435_TrROS],0.818 ± 0.2
9,SAGGSAGGSMVLNFEDTKPGVSPEEAAARVAAKIRAEHDVAVLGVEVETSPTGGYHITITVDPSAGGSAGGS [r12_781_JUSTAS],0.391 ± 0.062
10,SAGGGVTITASPDGTVTITIGGKPITVPVHPGATLEFRVEPTPDGRPAVTITWTSPDGTPYTFTFTGSAGGS [r16_231_TrMRF],4.89 ± 0.053
11,SAGGMTITIPPSVPDADVERIVEEAEATFPQPVTLTRDPGRGRWTLTFDGPEDERREAIEALAARLASAGGS [r16_227_JUSTAS],0.434 ± 0.12
12,SAGGSAMEIEVEKNEDGTVTIRFRDKETGEEIEIEIEVEPGMTEEEVREKAEELAEELKKKGIEIESAGGSA [r15_1022_TrROS_Hall],2.89 ± 0.23
13,SAGGSSSSALVTVPRTETFPGTTLTTETLITIDPETGTVKVTSTVYSEGEPVEVVPSTVPAAEVTLSAGGSA [r2_188_JUSTAS],0.592 ± 0.077
14,SMTTEEKVEVSVTVTPDPNSDNVTLTLTITKRTYAKDENGNWTEVSTETSTITVTLSPEEAAKLAAELLSSA [r9_642_JUSTAS],4.34 ± 0.17
15,SMPGVRVRLYTVRVKTPEGGELTAPIAVPAELFTEEEIRELVREAFPDAEDVEIEPAVLELPPAPGLLTASA [r9_841_TrMRF],1.43 ± 0.079
16,SAGGSAGGMELLPDGTLVLTLKAPSLEEALKAAEALAPPGAEVEIRFDEETKEVVIVIKLPPPESAGGSAGG [r6_859_TrROS_Hall],3.85 ± 0.082
17,SAGGEKDLYLVKYRVEIKNDKGEKKEFPVTAIATSLEELEETLKALTPKNAEAKVEILEVKPLKEVLSSAGG [r13_513_TrMRF],1.72 ± 0.1
18,SAGGKFKIVKIEVEEKTVKVKNKDGKIEKKKVKVIKVKIYKDGKLIKEVTFKSKEDMLNALKELLKKSAGGS [r8_21_TrROS_Hall],4.35 ± 0.3
19,SAGGMPPDARKLIREIAQDFGMSDIEPDEEGHVRINMPNPMMIQVDVENGEPKIKIYNNNKWREIPISAGGS [r16_296_TrROS],0.437 ± 0.13
20,SAGGSAGGSAGGSVPSVKLPKVGLKTDPVSSVLDFGEEKGDPVSVSIHLTLFLPDGTILLSAGGSAGGSAGG [r11_890_JUSTAS],0.672 ± 0.17
21,SAGGSAGGSAGKKIPFGKNVKILEIEEIDPDIIIIKFENSVFIVRILPNGEVKVIKFDIDSAGGSAGGSAGG [r11_612_TrMRF],2.33 ± 0.09
